Measured values from publication PMC12589655 (Nature Communications, 2025).

Molecular target: the molecule itself
Experiment: SEC-SAXS

B1: CVS wt P3, recombinant (rabies virus CVS-11 phosphoprotein, residues 53-297) (natural protein)
chain: MKRLHLDDEKSSNLGEMVRVGEGKYREDFQMDEGEDPNLLFQSYLDNVGVQIVRQMRSGERFLKIWSQTVEEIVSYVTVNFPNPPRRSSEDKSTQTTGRELKKETTSAFSQRESQPSKARMVAQVAPGPPALEWSATNEEDDLSVEAEIAHQIAESFSKKYKFPSRSSGIFLYNFEQLKMNLDDIVKEAKNVPGVTRLAHDGSKIPLRCVLGWVALANSKKFQLLVEADKLSKIMQDDLNRYTSC
- stoichiometry N: 2
